Results: US20180325119A1 (PIONEER HI BRED INTERNATIONAL, published 2018)
Residue numbers refer to the chain shown, from its start.

What was measured:
Assay in all cases: co-expression in E. coli (pETDuet-1, N-6 His on the -1 fragment, -2 fragment untagged); Ni-NTA purification
[1] = target: T1, IPD082Ia-2, C-terminal fragment of homolog IPD082Ia (Pseudomonas monteilii)
T1 chain: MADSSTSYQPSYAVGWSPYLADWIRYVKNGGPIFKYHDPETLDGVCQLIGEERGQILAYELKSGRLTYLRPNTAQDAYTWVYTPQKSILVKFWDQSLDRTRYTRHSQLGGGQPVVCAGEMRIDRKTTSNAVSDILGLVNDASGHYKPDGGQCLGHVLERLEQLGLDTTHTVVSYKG
Description: (§1) The IPD082Aa gene (SEQ ID NO: 1) was amplified by PCR using genomic DNA isolated from strain SSP446D7 using forward primer […] (SEQ ID NO: 59) and reverse primer […] (SEQ ID NO: 60). The resulting PCR product was DNA sequence verified and subcloned into pET16B vector with an N-terminal His-10 tag, and into pET24a vector with C-terminal His-10 tag or without tag. The plasmid DNA, containing the IPD082Aa gene insert, was transformed into competent C41 E. coli cells for recombinant protein expression. E. coli cells were grown at 37° C. with carbenicillin or kanamycin selection to OD₆₀₀ equal to 0.7-0.8 and then 1 mM ITPG was added and further grown at 16° C. for 16 hours to induce protein expression. The E. coli expressed His-tagged proteins were purified by immobilized metal ion chromatography using Ni-NTA agarose (Qiagen, Germany) according to the manufacturer's protocols. Other IPD082 homologs were expressed in a similar manner except the gene sequences were synthesized.
(§2) The polynucleotides, SEQ ID NO: 33 and SEQ ID NO: 35 respectively, encoding the 38.2 kDa N-terminal fragment (IPD082Aa-1—SEQ ID NO: 34) and 20.5 kDa C-terminal fragment (IPD082Aa-2—SEQ ID NO: 36) of IPD082Aa, were also co-expressed (FIG. 11) in a pETDuet™-1 vector (EMD Millipore, a Life Science business of Merck KGaA, Frankfurter StraBe 250, 64293, Darmstadt, Germany). Similarly polynucleotides encoding the C-terminal fragments of the IPD082 homologs: IPD082Hb-2 (SEQ ID NO: 37); IPD082Ia-2 (SEQ ID NO: 39); IPD082Ic-2 (SEQ ID NO: 41); IPD082Ie-2 (SEQ ID NO: 43); IPD082Ib-2 (SEQ ID NO: 45); IPD082Hd-2 (SEQ ID NO: 47); and IPD082Hc-2 (SEQ ID NO: 49), were cloned as chimeric fusions with IPD082Aa-2 (SEQ ID NO: 35) in the pETDuet™-1 vector containing IPD082Aa-1 polynucleotide (SEQ ID NO: 33).

[2] = target: T2, IPD082Ie-2, C-terminal fragment of homolog IPD082Ie (Pseudomonas agarici)
T2 chain: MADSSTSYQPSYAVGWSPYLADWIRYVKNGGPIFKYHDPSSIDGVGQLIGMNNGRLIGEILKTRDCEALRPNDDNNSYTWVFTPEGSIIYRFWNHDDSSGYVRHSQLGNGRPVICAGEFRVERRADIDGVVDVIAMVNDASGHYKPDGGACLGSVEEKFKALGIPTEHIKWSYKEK
Description: as §1, §2

[3] = target: T3, IPD082Ib-2, C-terminal fragment of homolog IPD082Ib (Pseudomonas sp VLB120)
T3 chain: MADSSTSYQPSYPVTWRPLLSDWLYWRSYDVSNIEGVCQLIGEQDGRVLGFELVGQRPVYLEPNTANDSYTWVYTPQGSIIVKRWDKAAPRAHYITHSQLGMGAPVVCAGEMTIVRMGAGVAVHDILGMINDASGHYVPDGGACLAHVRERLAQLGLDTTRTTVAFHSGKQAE
Description: as §1, §2

[4] = target: T4, IPD082Hc-2, C-terminal fragment of homolog IPD082Hc (Pseudomonas corrugata)
T4 chain: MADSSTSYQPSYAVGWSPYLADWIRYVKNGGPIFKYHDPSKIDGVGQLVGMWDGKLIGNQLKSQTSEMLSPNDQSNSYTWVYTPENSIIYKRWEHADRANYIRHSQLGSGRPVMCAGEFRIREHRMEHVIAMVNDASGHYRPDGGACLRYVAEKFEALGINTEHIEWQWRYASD
Description: as §1, §2

[5] = target: T5, IPD082Ic-2, C-terminal fragment of homolog IPD082Ic (Pseudomonas sp. S16-2)
T5 chain: T4 chain with K55Q, M68I, F155L, H164Y, A172T
Description: as §1, §2

[6] = target: T6, IPD082Hd-2, C-terminal fragment of homolog IPD082Hd (Pseudomonas corrugata)
T6 chain: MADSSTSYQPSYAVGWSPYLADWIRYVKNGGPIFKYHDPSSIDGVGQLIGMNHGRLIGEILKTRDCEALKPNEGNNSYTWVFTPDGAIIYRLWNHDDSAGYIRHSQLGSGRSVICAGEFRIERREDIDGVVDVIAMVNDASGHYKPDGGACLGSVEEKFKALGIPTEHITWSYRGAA
Description: as §1, §2

Measured: binding result

B1: IPD082Aa-1, N-terminal region of IPD082Aa (pETDuet-1 construct, N-6 His) (other)
chain: MQTTVSETLVSGSDPRLQVSMGNETANGRWDNPYAIQFTYSIAGRQFFYGQNLKTHYWFIQELLPGGKMGQETANGRWDNPYAVQFAFSVGGRQFFYGQNLETNYWFIQELLAGGKMGQETANGRWNNPYASQFAFSVGGRQFFYGQNLKTNYWFIQELLAGGKMGQETANGTLDGPFAVQFPFSVGGSQYFYGQNIKDRSWFIKELLAGGKVGKTTASGRWDNAYAVQFAYPAEQYGRQYFYGQNLDTNYWFVQELLPGGAMGEEIMNGRWGNPYATQFAYEQGGISYFYGQNQSSNYWFIQELLSDTEYTVRRLPLLDYSSSTSAAQQSAPGVCL
notes: Co-expressed in pETDuet-1 with untagged C-terminal fragments of IPD082 homologs; not shown: N-terminal 6xHis tag of the pETDuet-1 vector ('N-6 His for -1')
binds: all assays above
